Results published in patent US20090233993A1, “COMPOSITIONS AND METHODS FOR INHIBITING GSK3 ACTIVITY AND USES THEREOF” (Burnham Institute for Medical Research, priority 2008, published 2009).
Values joined by “and” are separate entries in the source; they are usually repeats but may differ in a detail not shown here. Identical values can stand only once. “Also recorded” adds a separate entry of the source.

Columns and labels:
GSK-3β = GSK-3β in vitro kinase activity after immunoprecipitation from N2aSwe cells; assay type: cell-based, mouse; conditions: in vitro kinase assay, FG01-overexpressing N2aSwe cells vs control
Text: (§1) The levels of the recombinant Notch (NotchΔE with Myc-tag) and the γ-secretase cleaved Notch fragment (NICD) were quantified by Western blotting using myc antibody and an antibody specific to processed Notch followed by densitometry. […] The results represent at least four independent experiments.
(§2) Commercial kits were used to assay in vitro activities of GSK-3β (Sigma) and PKA (Upstate). For GSK-3α activity, a commercial GSK-3β activity assay kit was used but the procedure to immunoprecititate GSK-3β was replaced with immunoprecipitation of GSK-3α using an anti-GSK-3α antibody (Cell Signaling). cAMP levels were assayed using a commercial kit (Biovision).

PKA [1] = assay: PKA inhibitor H89 treatment of FG01-transfected N2aSwe cells; assay type: cell-based, mouse; conditions: FG01-transfected cells treated with H89
Description: After 48 hr incubation, cell media were changed to Opti-MEM (Invitrogen) containing DMSO or a PKA activity inhibitor H89 (2 μM) and cells were incubated for additional 4 hrs. The cell media were used for Aβ immunoprecipitation-Western blotting and cell lysates were subjected to Western blotting for p-CREB (substrate for PKA) and p-GSK3β. As shown, inhibiting PKA activity with H89 prevented serine phosphorylation of CREB and GSK3β by FG01.
N2aSwe cells were transfected with control vector or FG01 and then equally split. Four hours before collection, cells were treated with the GSK-3 inhibitor lithium chloride (5 mM) or sodium chloride (5 mM, as control). Alternatively, cells were treated with a PKA inhibitor H89 at 10 μM or with DMSO for control.

Aβ generation = Aβ generation / APP processing in HeLaSwe cells expressing FG01 (Western blot, ELISA); assay type: cell-based, human
Description: Expression of secreted Aβ, sAPPα, β-CTF, total APP, α-tubulin and FG01 were detected by Western blots.
HeLa/swe cells were transfected with GSK-3β and/or FG01 as indicated. The levels of Aβ40/42 were determined by modified ELISA. The expression of GSK-3β and β-catenin were shown by Western blots. n=4.
HeLaSwe cells were transfected with FG01 or controls. Conditioned media and lysates from these cells were collected. The levels of Aβ40 and Aβ42 were quantified using ELISA kits (Invitrogen), following the manufacturer's protocols.
To corroborate this, FG01 was over expressed in N2aSwe cells.

PKA [2] = assay: PKA in vitro activity and CREB phosphorylation in FG01-transfected cells; assay type: cell-based, mouse
Description: After lysis, cell lysates were assayed for PKA activity, using a commercial kit and following the manufacturer's protocol (Upstate, catalog number 17-134). n=4.
as §2
Inhibition of GSK-3 activity via phosphorylation of serine 21 in GSK-3α and serine 9 in GSK-3β can be mediated by protein kinase A (PKA) (Fang et al., 2000), so whether FG01 regulates PKA activity was studied. […] Moreover, increased sAPPα secretion upon FG01 overexpression (FIG. 29A) is also likely due to PKA activation, because PKA can stimulate budding of APP-containing vesicles from the Trans-Golgi Network (TGN) and facilitates sAPPα generation (Xu et al., 1996).

CDK5 = CDK5 levels by Western blot in transfected HeLa and MFB cells; assay type: cell-based, mouse and human; conditions: FG01-transfected HeLa and MFB cells
Text: The expression of CDK5, FG01 and α-tubulin were detected by Western blots in transfected HeLa and MFB cells.

β-catenin = β-catenin level in human HEK293 cells (Western blot); assay type: cell-based; conditions: FG01 expression
Text: Expression of β-catenin, inactivated phospho-GSK-3β, total GSK-3, APP, β-CTF and FG01 in transfected human HEK293 cells were shown by Western blots.

GSK-3α/β = assay: phospho-GSK-3α (Ser21)/GSK-3β (Ser9) Western blot in mouse N2a/N2aSwe cells; assay type: cell-based
Text: The accumulation of βCTF can also be attributed to decrease in γ-secretase cleavage. However, the Notch cleavage was not altered by overexpression of the recombinant FG01 (FIG. 9A). […] Thus, the activities of GSK-3α/β were examined with or without overexpressing FG01. First, the levels of phospho-GSK3α at Ser21 and GSK-3β at Ser9 (the inactivated forms of GSK3) were quantified using the specific antibodies.
as §1
The levels of total GSK-3 were used as normalization factors.
Although the possibility that FG01 may modulate substrate specificity or accessibility to γ-secretase can not be excluded, it is equally possible that FG01 regulates other proteins/pathways functioning in APP processing and Aβ generation. […] Thus, the activities of GSK-3α/β were studied in the presence or absence of FG01 overexpression by examining levels of phospho-GSK-3α (Ser 21) and phospho-GSK-3β (Ser 9) (which represent inactivated forms of GSK-3) and by in vitro kinase assays.

APP = APP trafficking to cell surface (biotinylation) in N2a/swe cells; assay type: cell-based, mouse; conditions: FG01-transfected N2a/swe cells
Text: After treated with biotin or DMSO, membrane protein and total cell lysates were subjected to Western blots for APP.

γ-secretase = γ-secretase cleavage on Notch (NICD generation) and nicastrin level; assay type: cell-based, mouse
Text: as §1
N2a cells were transfected with Myc-tagged Notch1 NΔE construct lacking the ectodomain, which allows ligand-independent processing by γ-secretase to produce NICD (Schroeter et al., 1998). NICD generation was analyzed by immunoblot with an antibody specifically recognizing the cleaved Notch product NICD (Cell Signaling Technology).
Cleavage of Notch, another important γ-secretase substrate (Kopan and Goate, 2000), was not altered by FG01 overexpression. N2a cells were transfected with Myc-tagged Notch1 NΔE construct. After equal splitting, cells were transfected with control vector (Con) or FG01. Cell lysates were subjected to SDS-PAGE and Western blot with the Myc antibody (recognizing both exogenous FG01 and Notch NΔE) and with an NICD-specific antibody. Protein levels of nicastrin, an important component of the γ-secretase complex, were also not affected by FG01 overexpression.

[3] = ELISA, HeLaSwe cells, FG01 expression

B1: FG01: 141 amino acid transmembrane protein encoded by mouse retrogene fg01 (SEQ ID NO:2); expressed from transfected vector or transgene (protein)
chain: MQSQQRNIGYFNHLKADSRNITYSMTFSTKSSNQNFIIFLNEVQAAIIGHERCDLLPVLNELHPDALPDGRIWLFGLNPYFFQHNSLCMRGTPKRIGLQGCAQVGFLVLFVMPLLIPSVTAELPGSSETTTLAHLAGATGP
modifications: Myc and His6 tags; homo sapien
notes: expressed from transfected vector or transgene
Which results are given for B1?
decrease in GSK-3β activity (GSK-3β): ~30% and 40%; inhibition of Aβ generation when PKA suppressed by H89 (PKA [1]): failed to inhibit; inhibition of GSK-3 activity when PKA suppressed by H89 (PKA [1]): failed to inhibit; Aβ40 level (Aβ generation; [3]): significantly reduced; Aβ42 level (Aβ generation; [3]): significantly reduced; effects of overexpression of GSK-3β on Aβ production (Aβ generation; HeLa/swe cells transfected with GSK-3β and/or FG01, Aβ40/42 ELISA): suppressed; Aβ levels / Aβ generation (Aβ generation; mouse FG01 expressed in HeLa cells with APP Swedish mutant): decreases; also recorded: reduced Aβ generation; accumulation of sAPPα (Aβ generation; mouse FG01 in HeLaSwe cells): increased accumulation; accumulation of βCTF (Aβ generation; mouse FG01 in HeLaSwe cells): increased accumulation; PKA activity (PKA [2]; FG01-transfected N2a/Swe cells vs control): significantly increase; also recorded: significantly more PKA activity; phosphorylation of CREB (PKA substrate) (PKA [2]; FG01 overexpression): increased; levels of CDK5 (CDK5): did not change; level of β-catenin (β-catenin): increases; GSK-3α/β activity in the presence of lithium (GSK-3α/β; FG01-transfected N2aSwe cells, 5 mM LiCl 4 hrs): could not further reduce; GSK-3 activities (inactivated phospho-GSK-3β) (GSK-3α/β; FG01 overexpression, mouse N2a cells, Western blot): decreases; phospho-GSK-3α (Ser21) and phospho-GSK-3β (Ser9) levels (inactivated forms) (GSK-3α/β; FG01 overexpression, mouse N2aSwe cells): more GSK-3α/β were phosphorylated; also recorded: more highly phosphorylated; APP trafficking to cell surface (APP): stimulates; protein levels of nicastrin (γ-secretase; FG01 overexpression in N2a cells): not affected; Notch cleavage (γ-secretase; Notch ΔE cotransfected with FG01): not altered
